Data reported in paper PMC2175199 (The Journal of Cell Biology, 2000).

T1: hSA2 (human (endogenous in HeLa), UniProt Q8N3U4 1-1231)
T1 sequence: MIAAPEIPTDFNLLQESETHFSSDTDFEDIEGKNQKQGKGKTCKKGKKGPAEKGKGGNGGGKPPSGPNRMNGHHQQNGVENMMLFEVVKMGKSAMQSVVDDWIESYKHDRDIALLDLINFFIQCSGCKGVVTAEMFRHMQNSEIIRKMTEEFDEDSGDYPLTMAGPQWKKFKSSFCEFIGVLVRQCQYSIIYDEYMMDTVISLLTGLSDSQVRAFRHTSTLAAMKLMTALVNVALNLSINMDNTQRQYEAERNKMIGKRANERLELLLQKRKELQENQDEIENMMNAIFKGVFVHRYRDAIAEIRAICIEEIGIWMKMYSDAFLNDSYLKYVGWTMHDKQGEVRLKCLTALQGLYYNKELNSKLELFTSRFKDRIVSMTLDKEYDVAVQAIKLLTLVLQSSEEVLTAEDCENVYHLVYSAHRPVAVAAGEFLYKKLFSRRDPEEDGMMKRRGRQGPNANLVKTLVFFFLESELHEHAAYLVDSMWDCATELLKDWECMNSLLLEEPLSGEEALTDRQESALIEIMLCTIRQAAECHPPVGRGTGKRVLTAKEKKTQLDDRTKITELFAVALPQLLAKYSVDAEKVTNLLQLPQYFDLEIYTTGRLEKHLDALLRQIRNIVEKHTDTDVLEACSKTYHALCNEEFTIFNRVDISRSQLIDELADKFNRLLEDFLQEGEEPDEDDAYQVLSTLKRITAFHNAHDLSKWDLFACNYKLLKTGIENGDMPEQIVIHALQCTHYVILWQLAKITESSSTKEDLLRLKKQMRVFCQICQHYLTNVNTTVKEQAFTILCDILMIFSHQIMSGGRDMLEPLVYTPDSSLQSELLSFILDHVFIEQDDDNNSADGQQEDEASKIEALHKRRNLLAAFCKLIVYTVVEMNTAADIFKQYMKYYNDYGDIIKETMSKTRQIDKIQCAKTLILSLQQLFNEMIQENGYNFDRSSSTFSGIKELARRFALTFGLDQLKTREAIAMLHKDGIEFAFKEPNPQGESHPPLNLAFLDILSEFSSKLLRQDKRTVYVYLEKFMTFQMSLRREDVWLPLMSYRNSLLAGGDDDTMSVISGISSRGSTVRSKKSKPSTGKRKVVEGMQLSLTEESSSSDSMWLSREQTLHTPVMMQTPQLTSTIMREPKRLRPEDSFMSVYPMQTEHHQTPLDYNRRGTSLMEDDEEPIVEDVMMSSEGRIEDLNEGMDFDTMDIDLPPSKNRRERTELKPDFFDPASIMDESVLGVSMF

T2: hSA1 (human (endogenous in HeLa), UniProt Q8WVM7 1-1258)
T2 sequence: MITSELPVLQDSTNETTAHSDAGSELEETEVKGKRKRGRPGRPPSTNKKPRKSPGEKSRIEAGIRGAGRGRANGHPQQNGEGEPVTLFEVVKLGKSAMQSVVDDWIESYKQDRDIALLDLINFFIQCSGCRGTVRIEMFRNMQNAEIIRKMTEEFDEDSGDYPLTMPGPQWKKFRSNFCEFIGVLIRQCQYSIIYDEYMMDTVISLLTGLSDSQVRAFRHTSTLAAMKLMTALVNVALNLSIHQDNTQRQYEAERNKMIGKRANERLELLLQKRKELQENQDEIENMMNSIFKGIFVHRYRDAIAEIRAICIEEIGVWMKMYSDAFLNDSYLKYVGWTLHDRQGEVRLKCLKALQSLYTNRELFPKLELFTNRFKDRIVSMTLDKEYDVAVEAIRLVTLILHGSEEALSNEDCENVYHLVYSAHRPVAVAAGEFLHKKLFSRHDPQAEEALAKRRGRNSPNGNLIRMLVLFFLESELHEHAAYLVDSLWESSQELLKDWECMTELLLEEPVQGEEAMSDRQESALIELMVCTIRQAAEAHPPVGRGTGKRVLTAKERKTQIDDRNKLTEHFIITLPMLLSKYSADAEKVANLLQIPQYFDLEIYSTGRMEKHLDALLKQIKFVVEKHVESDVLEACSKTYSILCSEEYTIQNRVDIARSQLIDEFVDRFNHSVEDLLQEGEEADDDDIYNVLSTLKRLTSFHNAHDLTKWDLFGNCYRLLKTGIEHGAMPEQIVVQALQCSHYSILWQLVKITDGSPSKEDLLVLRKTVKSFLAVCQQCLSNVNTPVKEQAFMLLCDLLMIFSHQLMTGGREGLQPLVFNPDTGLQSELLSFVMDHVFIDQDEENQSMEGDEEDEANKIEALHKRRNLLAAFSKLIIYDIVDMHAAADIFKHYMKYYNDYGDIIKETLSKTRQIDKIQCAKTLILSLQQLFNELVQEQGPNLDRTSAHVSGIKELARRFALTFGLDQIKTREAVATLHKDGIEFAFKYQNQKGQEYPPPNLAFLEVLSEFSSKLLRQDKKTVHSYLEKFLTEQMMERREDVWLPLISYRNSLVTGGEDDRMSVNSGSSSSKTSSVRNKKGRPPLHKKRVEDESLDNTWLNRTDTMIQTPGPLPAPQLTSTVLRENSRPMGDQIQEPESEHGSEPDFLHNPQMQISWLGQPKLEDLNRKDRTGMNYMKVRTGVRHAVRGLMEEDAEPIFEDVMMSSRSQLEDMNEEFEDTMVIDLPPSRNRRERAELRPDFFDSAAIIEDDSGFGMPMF

B1: hSMC1 (natural protein)
chain: MGFLKLIEIENFKSYKGRQIIGPFQRFTAIIGPNGSGKSNLMDAISFVLGEKTSNLRVKTLRDLIHGAPVGKPAANRAFVSMVYSEEGAEDRTFARVIVGGSSEYKINNKVVQLHEYSEELEKLGILIKARNFLVFQGAVESIAMKNPKERTALFEEISRSGELAQEYDKRKKEMVKAEEDTQFNYHRKKNIAAERKEAKQEKEEADRYQRLKDEVVRAQVQLQLFKLYHNEVEIEKLNKELASKNKEIEKDKKRMDKVEDELKEKKKELGKMMREQQQIEKEIKEKDSELNQKRPQYIKAKENTSHKIKKLEAAKKSLQNAQKHYKKRKGDMDELEKEMLSVEKARQEFEERMEEESQSQGRDLTLEENQVKKYHRLKEEASKRAATLAQELEKFNRDQKADQDRLDLEERKKVETEAKIKQKLREIEENQKRIEKLEEYITTSKQSLEEQKKLEGELTEEVEMAKRRIDEINKELNQVMEQLGDARIDRQESSRQQRKAEIMESIKRLYPGSVYGRLIDLCQPTQKKYQIAVTKVLGKNMDAIIVDSEKTGRDCIQYIKEQRGEPETFLPLDYLEVKPTDEKLRELKGAKLVIDVIRYEPPHIKKALQYACGNALVCDNVEDARRIAFGGHQRHKTVALDGTLFQKSGVISGGASDLKAKARRWDEKAVDKLKEKKERLTEELKEQMKAKRKEAELRQVQSQAHGLQMRLKYSQSDLEQTKTRHLALNLQEKSKLESELANFGPRINDIKRIIQSREREMKDLKEKMNQVEDEVFEEFCREIGVRNIREFEEEKVKRQNEIAKKRLEFENQKTRLGIQLDFEKNQLKEDQDKVHMWEQTVKKDENEIEKLKKEEQRHMKIIDETMAQLQDLKNQHLAKKSEVNDKNHEMEEIRKKLGGANKEMTHLQKEVTAIETKLEQKRSDRHNLLQACKMQDIKLPLSKGTMDDISQEEGSSQGEDSVSGSQRISSIYAREALIEIDYGDLCEDLKDAQAEEEIKQEMNTLQQKLNEQQSVLQRIAAPNMKAMEKLESVRDKFQETSDEFEAARKRAKKAKQAFEQIKKERFDRFNACFESVATNIDEIYKALSRNSSAQAFLGPENPEEPYLDGINYNCVAPGKRFRPMDNLSGGEKTVAALALLFAIHSYKPAPFFVLDEIDAALDNTNIGKVANYIKEQSTCNFQAIVISLKEEFYTKAESLIGVYPEQGDCVISKVLTFDLTKYPDANPNPNEQ
B2: hSMC3 (natural protein)
chain: MYIKQVIIQGFRSYRDQTIVDPFSSKHNVIVGRNGSGKSNFFYAIQFVLSDEFSHLRPEQRLALLHEGTGPRVISAFVEIIFDNSDNRLPIDKEEVSLRRVIGAKKDQYFLDKKMVTKNDVMNLLESAGFSRSNPYYIVKQGKINQMATAPDSQRLKLLREVAGTRVYDERKEESISLMKETEGKREKINELLKYIEERLHTLEEEKEELAQYQKWDKMRRALEYTIYNQELNETRAKLDELSAKRETSGEKSRQLRDAQQDARDKMEDIERQVRELKTKISAMKEEKEQLSAERQEQIKQRTKLELKAKDLQDELAGNSEQRKRLLKERQKLLEKIEEKQKELAETEPKFNSVKEKEERGIARLAQATQERTDLYAKQGRGSQFTSKEERDKWIKKELKSLDQAINDKKRQIAAIHKDLEDTEANKEKNLEQYNKLDQDLNEVKARVEELDRKYYEVKNKKDELQSERNYLWREENAEQQALAAKREDLEKKQQLLRAATGKAILNGIDSINKVLDHFRRKGINQHVQNGYHGIVMNNFECEPAFYTCVEVTAGNRLFYHIVDSDEVSTKILMEFNKMNLPGEVTFLPLNKLDVRDTAYPETNDAIPMISKLRYNPRFDKAFKHVFGKTLICRSMEVSTQLARAFTMDCITLEGDQVSHRGALTGGYYDTRKSRLELQKDVRKAEEELGELEAKLNENLRRNIERINNEIDQLMNQMQQIETQQRKFKASRDSILSEMKMLKEKRQQSEKTFMPKQRSLQSLEASLHAMESTRESLKAELGTDLLSQLSLEDQKRVDALNDEIRQLQQENRQLLNERIKLEGIITRVETYLNENLRKRLDQVEQELNELRETEGGTVLTATTSELEAINKRVKDTMARSEDLDNSIDKTEAGIKELQKSMERWKNMEKEHMDAINHDTKELEKMTNRQGMLLKKKEECMKKIRELGSLPQEAFEKYQTLSLKQLFRKLEQCNTELKKYSHVNKKALDQFVNFSEQKEKLIKRQEELDRGYKSIMELMNVLELRKYEAIQLTFKQVSKNFSEVFQKLVPGGKATLVMKKGDVEGSQSQDEGEGSGESERGSGSQSSVPSVDQFTGVGIRVSFTGKQGEMREMQQLSGGQKSLVALALIFAIQKCDPAPFYLFDEIDQALDAQHRKAVSDMIMELAVHAQFITTTFRPELLESADKFYGVKFRNKVSHIDVITAEMAKDFVEDDTTHG

Assays:
hSA2 = target: T1, hSA2; test: co-IP
hSA1 = target: T2, hSA1; test: co-IP

Row | Binder | percent removed from the extract by anti-XSA2 (hSA2) | percent removed from the extract by anti-XSA1 (hSA1)
1 | B1 | ~75% | ~25%
2 | B2 | ~75% | ~25%
